Results on one molecule are retold here after patent publication US20260070975A1 (SANTA ANA BIO, published 2026).

The target of the assay is c-Kit expressed on the cell surface of M-07e cells (human, UniProt P10721 26-976). In words: cell-based or functional assay.
c-Kit expressed on the cell surface of M-07e cells, sequence (P10721 26-976): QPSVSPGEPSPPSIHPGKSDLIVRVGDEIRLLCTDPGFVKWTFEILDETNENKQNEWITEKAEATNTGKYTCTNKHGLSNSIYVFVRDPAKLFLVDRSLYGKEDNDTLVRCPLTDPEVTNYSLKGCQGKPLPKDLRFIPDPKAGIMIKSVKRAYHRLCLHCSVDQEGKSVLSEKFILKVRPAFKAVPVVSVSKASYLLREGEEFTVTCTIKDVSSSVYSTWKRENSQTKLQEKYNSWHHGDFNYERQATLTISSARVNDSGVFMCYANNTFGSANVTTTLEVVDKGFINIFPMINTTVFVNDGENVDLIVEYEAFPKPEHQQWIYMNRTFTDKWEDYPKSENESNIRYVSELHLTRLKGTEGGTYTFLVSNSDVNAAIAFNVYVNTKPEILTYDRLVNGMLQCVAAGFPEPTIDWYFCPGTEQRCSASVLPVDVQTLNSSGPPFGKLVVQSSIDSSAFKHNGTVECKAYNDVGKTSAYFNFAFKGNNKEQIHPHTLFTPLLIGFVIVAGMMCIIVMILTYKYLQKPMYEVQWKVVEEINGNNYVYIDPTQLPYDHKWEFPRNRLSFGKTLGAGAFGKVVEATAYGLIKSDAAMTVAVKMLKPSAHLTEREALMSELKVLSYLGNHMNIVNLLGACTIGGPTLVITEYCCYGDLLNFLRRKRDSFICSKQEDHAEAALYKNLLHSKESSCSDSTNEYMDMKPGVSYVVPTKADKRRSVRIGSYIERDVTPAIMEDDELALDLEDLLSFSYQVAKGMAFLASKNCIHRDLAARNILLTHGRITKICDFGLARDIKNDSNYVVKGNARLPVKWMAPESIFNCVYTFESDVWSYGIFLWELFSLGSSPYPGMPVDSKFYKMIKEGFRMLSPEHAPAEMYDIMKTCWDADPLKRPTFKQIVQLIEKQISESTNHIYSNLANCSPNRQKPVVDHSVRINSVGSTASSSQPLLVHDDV

B1: anti-siglec/anti-c-Kit bispecific hRND-3/hSR1-1 (bispecific antibody, V domains shown)
VH 1: QVQLVQSGAEVKKPGASVKLSCKASGYAFTSYWMHWVRQAPGQRLEWIGEIYPTNGGTTYAQKFQGRATLTVDKSTSTAYMELSRLRSDDTAVYYCTIEDFYAMDYWGQGTTVTVSS
VL 1: DIVMTQTPLSLSVTPGQPASISCKSSQSLLDSDGKTSLNWLLQKPGQSPQRLIYLVSKLDSGVPDRFSGSGSGTDFTLKISRVEAEDVGVYYCWQGTHFPYTFGQGTKLEIK
VH 2: QVQLVQSGAEVKKPGASVKVSCKASGYTFTSYNMHWVRQAPGQGLEWMGVIYSGNGDTSYAQKFQGRVTMTADTSTSTAYMELSSLRSEDTAVYYCARERDTRFGNWGQGTLVTVSS
VL 2: DIQLTQSPSSLSASVGDRATITCRASESVDIYGNSFMHWYQQKPGKAPKLLIYLASNLESGVPSRFSGSGSGTDFTLTISSVQPEDFATYYCQQNNEDPYTFGQGTKLEIK
For B1, the “IC50 (read off the curve)” value is roughly 0.2 nM.
